Laboratory results from IntAct's records for PubMed 19536132.

B1: Conserved oligomeric Golgi complex subunit 4 (Homo sapiens), Q9H9E3 (parent)
chain: MADLDSPPKLSGVQQPSEGVGGGRCSEISAELIRSLTELQELEAVYERLCGEEKVVERELDALLEQQNTIESKMVTLHRMGPNLQLIEGDAKQLAGMITFTCNLAENVSSKVRQLDLAKNRLYQAIQRADDILDLKFCMDGVQTALRSEDYEQAAAHTHRYLCLDKSVIELSRQGKEGSMIDANLKLLQEAEQRLKAIVAEKFAIATKEGDLPQVERFFKIFPLLGLHEEGLRKFSEYLCKQVASKAEENLLMVLGTDMSDRRAAVIFADTLTLLFEGIARIVETHQPIVETYYGPGRLYTLIKYLQVECDRQVEKVVDKFIKQRDYHQQFRHVQNNLMRNSTTEKIEPRELDPILTEVTLMNARSELYLRFLKKRISSDFEVGDSMASEEVKQEHQKCLDKLLNNCLLSCTMQELIGLYVTMEEYFMRETVNKAVALDTYEKGQLTSSMVDDVFYIVKKCIGRALSSSSIDCLCAMINLATTELESDFRDVLCNKLRMGFPATTFQDIQRGVTSAVNIMHSSLQQGKFDTKGIESTDEAKMSFLVTLNNVEVCSENISTLKKTLESDCTKLFSQGIGGEQAQAKFDSCLSDLAAVSNKFRDLLQEGLTELNSTAIKPQVQPWINSFFSVSHNIEEEEFNDYEANDPWVQQFILNLEQQMAEFKASLSPVIYDSLTGLMTSLVAVELEKVVLKSTFNRLGGLQFDKELRSLIAYLTTVTTWTIRDKFARLSQMATILNLERVTEILDYWGPNSGPLTWRLTPAEVRQVLALRIDFRSEDIKRLRL

Variants of: B1
Conditions: with scfd1_human SCFD1, Q8WVM8
Sequence of scfd1_human SCFD1, Q8WVM8 (Q8WVM8 whole entry, looked up): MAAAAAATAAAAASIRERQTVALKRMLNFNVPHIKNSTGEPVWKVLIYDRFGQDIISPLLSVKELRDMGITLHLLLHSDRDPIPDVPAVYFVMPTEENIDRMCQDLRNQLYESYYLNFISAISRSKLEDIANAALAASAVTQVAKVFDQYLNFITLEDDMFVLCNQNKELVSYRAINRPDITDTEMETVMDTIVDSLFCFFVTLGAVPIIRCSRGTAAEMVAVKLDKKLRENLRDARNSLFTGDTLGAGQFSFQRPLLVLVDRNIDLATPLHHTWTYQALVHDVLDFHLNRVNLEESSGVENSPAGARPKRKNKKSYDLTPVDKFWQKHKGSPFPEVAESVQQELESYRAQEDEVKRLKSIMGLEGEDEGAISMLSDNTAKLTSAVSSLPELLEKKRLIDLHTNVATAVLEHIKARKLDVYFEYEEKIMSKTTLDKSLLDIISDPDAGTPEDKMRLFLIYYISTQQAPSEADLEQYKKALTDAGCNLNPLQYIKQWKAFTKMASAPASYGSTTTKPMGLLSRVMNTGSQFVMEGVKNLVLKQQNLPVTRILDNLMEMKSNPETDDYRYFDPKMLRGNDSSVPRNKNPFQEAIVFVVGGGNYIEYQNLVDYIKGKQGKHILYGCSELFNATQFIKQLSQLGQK

| Variant | effect of a mutation on the interaction |
| --- | --- |
| E53A | decreasing interaction |

Variants of: B1
Conditions: with scfd1_human SCFD1, Q8WVM8
Remark: another data set of the same source

| Variant | effect of a mutation on the interaction |
| --- | --- |
| E53A | disrupting interaction |
| E71A | disrupting interaction |
